From patent US20210340516A1, “COMPOSITIONS CONTAINING ARGINASE 1 FOR THE TREATMENT OF NEUROVASCULAR AND RETINAL VASCULAR DISORDERS” (Augusta University Research Institute, Inc., priority 2020, published 2021)

Assays:
[1] = test system: C57BL/6J mice subjected to middle cerebral artery occlusion (MCAO); experiment: MCAO stroke model: infarct size (TTC) and Bederson score; type: in vivo, mouse; details: 60 minutes MCAO, 24 hours
Method: MCAO model: C57BL/6J mice (12-16 week-old male, 25-30 g) were subjected to middle cerebral artery occlusion (MCAO) using the intraluminal filament technique (Docol 602145) for 60-minutes followed by reperfusion as described in Eldahshan, et al., American Journal of Physiology Heart and Circulatory Physiology, 316:H1192-h201 (2019). […] A heating pad was used to maintain body temperature at 37° C. […] Sham surgery involved all the regular surgery steps except the filament insertion. Mice were deeply anesthetized at 24 hours and sacrificed by trans-cardial perfusion with PBS then brains were collected and sectioned for triphenyl tetrazolium chloride (TTC) staining or homogenized in RIPA lysis buffer for western blotting. […]
The stroke experiment involved behavioral scoring and manual quantification of the infarct size, and was conducted in a blinded fashion following the STAIR criteria. […]
Infarct size analysis: Brain infarct size was determined based on TTC staining of brain sections as described in Eldahshan, et al., American Journal of Physiology Heart and Circulatory Physiology, 316:H1192-h201 (2019). Images of TTC-stained sections were analyzed in a blinded fashion using ImageJ software [National Institutes of Health (NIH)], and the infarct size was calculated with edema correction using the following formula: 100×[nonstroked−(stroked−infarct)]/nonstroked. […]

[2] = MCAO stroke model: PEG-A1 penetration into the brain (Western blot); type: in vivo, mouse; details: 60 minutes MCAO, 24 hours after stroke, perfused
Method: Western blotting: Western blotting on retina or brain was conducted as described in Fouda, A Y, et al., Cell death & Disease, 9:1001 (2018). Membranes were probed with anti-PEG (RevMAb Biosciences, 1:1000) and anti-albumin (Bethyl Laboratories, 1:5000). Uncropped blots are included in FIG. 22.
MCAO model: C57BL/6J mice (12-16 week-old male, 25-30 g) were subjected to middle cerebral artery occlusion (MCAO) using the intraluminal filament technique (Docol 602145) for 60-minutes followed by reperfusion as described in Eldahshan, et al., American Journal of Physiology Heart and Circulatory Physiology, 316:H1192-h201 (2019). […] A heating pad was used to maintain body temperature at 37° C. […] Sham surgery involved all the regular surgery steps except the filament insertion. Mice were deeply anesthetized at 24 hours and sacrificed by trans-cardial perfusion with PBS then brains were collected and sectioned for triphenyl tetrazolium chloride (TTC) staining or homogenized in RIPA lysis buffer for western blotting.
PEG-A1 treatment in acute retinal and brain injury mouse models: A pharmaceutical grade of PEG-A1 was provided as a kind gift from Bio-Cancer Treatment International Limited (BCT, Hong Kong). […] Methoxy polyethylene glycol propionic acid (MW 5,000—Sigma, Catalog number 88908-1G-F) was used as vehicle control. […]

[3] = test system: WT pups subjected to oxygen-induced retinopathy (OIR); experiment: OIR mouse model: morphometric analysis of vaso-obliteration and neovascularization on lectin-labeled retinal flat mounts; type: in vivo
From the text: OIR mouse model: Wild type (WT) or heterozygous A1 knock out (A1^+/−) mice and their wild type (WT) littermates were subjected to oxygen induced retinopathy (OIR). Because deletion of both copies of A1 is lethal due to hyperammonemia, mice lacking 1 copy of A1 were used which is sufficient to dampen its activity (Zhang, et al., Am J Pathol, 175:891-902 (2009); Elms, et al., Diabetologia, 56:654-662 (2013); Patel, et al., Front Immunol, 4:173 (2014)). OIR was induced in newborn mice according to the protocol of Smith, et al. with some adjustments (Connor, et al., Nature Protocols, 4:1565-1573 (2009)). On P7 (postnatal day 7), mice were placed along with their dams in a hyperoxia (70% oxygen) chamber for up to 5 days, after which they were transferred back to room air on P12. The 70% oxygen concentration was used for experiments involving A1^+/− mice based on preliminary experiments showing intolerance of the A1^+/− mice to 75% oxygen treatment. Mice were sacrificed at various times and retinas were collected for analyses (FIG. 1A-1C). In all experiments, mice were compared to their littermate controls. Then data were pooled together to minimize variability between litters due to differences in litter size and weight gain (Kim, et al., Eye and Brain, 8:67-79 (2016)). These experiments were performed in accordance with the ARVO Statement for the Use of Animals in Ophthalmic and Vision Research, and were approved by the institutional animal care and use committee.
Analysis of vaso-obliteration and neovascularization: Eyeballs were fixed in 4% paraformaldehyde (PFA) overnight. Retina flat-mounts were dissected and then blocked and permeabilized in phosphate-buffered saline (PBS) containing 10% goat serum and 1% Triton X-100 (Sigma-Aldrich) for 30 minutes. Retinas were then immunolabeled with Alex594-labeled Griffonia simplicifolia isolectin B4 (1:200; Invitrogen, Carlsbad, Calif.) overnight at 4° C. Retinas were flat-mounted in mounting medium (Vectashield; Vector Laboratories, Burlingame, Calif.) and images were captured using fluorescence microscopy (Axioplan 2, Carl Zeiss Vision Inc.). Areas of central capillary dropout (vaso-obliteration, VO) and vitreoretinal neovascular tufts (neovascularization, NV) were quantified in a masked fashion using ImageJ software (NIH, Bethesda, Md.) (Connor, et al., Nature Protocols, 4:1565-1573 (2009); Patel, et al., Am J Pathol, 184:3040-3051 (2014)). High-magnification images were acquired to perform vessel sprouting analysis. Vessel sprouts were counted as previously described Patel, et al., Am J Pathol, 184:3040-3051 (2014)).
PBS was used as vehicle control. Pups were anesthetized before treatment by intraperitoneal (i.p.) injection of ketamine/xylazine mixture. Intravitreal injections were performed using a 36-gauge NanoFil needle mounted to a 10-μL Hamilton syringe (World Precision Instruments). Two treatment strategies were employed. […] The P9 time point was selected based on the fact that vaso-obliteration occurs within the first 48 hours of hyperoxia treatment (Connor, et al., Nature Protocols, 4:1565-1573 (2009); Lange, et al., Graefe's archive for clinical and experimental ophthalmology, 247:1205-1211 (2009); Gu, et al., Investigative ophthalmology & visual science, 43:496-502 (2002)).

[4] = intravitreal 6.8 ng in 0.5 μL at P12, analysis at P17

B1: PEG-A1: recombinant human arginase (rhArg) covalently attached to methoxy polyethylene glycol (mPEG-SPA; MW 5,000) via succinamide propionic acid (SPA) linker (protein, UniProt P05089 1-322, looked up)
Arginase-1: MSAKSRTIGIIGAPFSKGQPRGGVEEGPTVLRKAGLLEKLKEQECDVKDYGDLPFADIPNDSPFQIVKNPRSVGKASEQLAGKVAEVKKNGRISLVLGGDHSLAIGSISGHARVHPDLGVIWVDAHTDINTPLTTTSGNLHGQPVSFLLKELKGKIPDVPGFSWVTPCISAKDIVYIGLRDVDPGEHYILKTLGIKYFSMTEVDRLGIGKVMEETLSYLLGRKKRPIHLSFDVDGLDPSFTPATGTPVVGGLTYREGLYITEEIYKTGLLSGLDIMEVNPSLGKTPEEVTRTVNTAVAITLACFGLAREGNHKPIDYLNPPK
modifications: mPEG-SPA 5 kDa conjugate
notes: recombinant human arginase (rhArg) covalently attached to methoxy polyethylene glycol (mPEG-SPA; MW 5,000) via succinamide propionic acid (SPA) linker
[1]
  Bederson score: trend towards improved Bederson score that did not reach statistical significance
[1]; vehicle 41%
  infarct size (TTC, percent of contralesional hemisphere): 34%
[2]
  anti-PEG immunoreactivity in stroked brains (Western blot, also anti-A1): strong band
[3]; intravitreal 6.8 ng in 0.5 μL at P7, hyperoxia, P9
  hyperoxia-induced vaso-obliteration (capillary dropout area): does not affect
[3]; [4]
  avascular area: avascular area was reduced
  endothelial tip cells (vessel sprouts) per field of view: two-fold increase
  neovascular tufts (pathological neovascularization): reduced neovascular tufts
[3]; intravitreal PEG-A1, vs vehicle
  lectin-positive vitreal macrophages after OIR: increased
